We go through three molecules from US20220033501A1 (SHANGHAI PHARMAEXPLORER, published 2022).

The target in experiment [1] is T1, monkey TIM-3 on CHOK1 stable cell line (CHOK1-cTIM-3) (monkey).
T1 chain: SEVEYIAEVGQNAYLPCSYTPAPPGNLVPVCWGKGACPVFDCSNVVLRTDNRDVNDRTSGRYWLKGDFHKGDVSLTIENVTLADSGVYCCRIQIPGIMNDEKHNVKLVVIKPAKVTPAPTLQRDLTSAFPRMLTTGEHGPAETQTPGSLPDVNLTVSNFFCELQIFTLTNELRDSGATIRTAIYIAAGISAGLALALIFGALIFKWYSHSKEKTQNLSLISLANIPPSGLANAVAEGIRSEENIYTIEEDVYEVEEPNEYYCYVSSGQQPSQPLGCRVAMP
Description: FACS, CHOK1-cTIM-3 cells, 0.064 nM antibody. (In general: Flow cytometry measures light scatter and fluorescence of single cells or particles in a stream.)

In experiment [2] the target is T2, murine TIM-3 extracellular domain protein with hFc tag (mTIM-3-hFc) (mouse, UniProt Q8VIM0 29-191).
T2 construct: also called mouse TIM-3 extracellular domain protein; not shown: human IgG Fc fragment (hFc) of the pCpC vector
T2 chain: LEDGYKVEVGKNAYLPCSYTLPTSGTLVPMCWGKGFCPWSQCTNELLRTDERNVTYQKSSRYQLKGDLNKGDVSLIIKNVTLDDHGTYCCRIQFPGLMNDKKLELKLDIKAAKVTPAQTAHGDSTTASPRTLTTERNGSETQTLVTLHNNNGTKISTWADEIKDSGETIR
The experiment can be described thus: ELISA, coated mouse TIM-3 ECD protein, 0 nM antibody. On the technique in general: ELISA stands for enzyme-linked immunosorbent assay.

Experiment [3] addresses T2, murine TIM-3 extracellular domain …. The experiment can be described thus: ELISA, coated mouse TIM-3 ECD protein, 0.0007 nM antibody.
The target in experiment [4] is T3, human TIM-3 extracellular domain protein with hFc tag (hTIM-3-hFc) (human, UniProt Q8TDQ0 22-200).
T3 construct: not shown: human IgG Fc fragment (hFc) of the pCpC vector
T3 sequence: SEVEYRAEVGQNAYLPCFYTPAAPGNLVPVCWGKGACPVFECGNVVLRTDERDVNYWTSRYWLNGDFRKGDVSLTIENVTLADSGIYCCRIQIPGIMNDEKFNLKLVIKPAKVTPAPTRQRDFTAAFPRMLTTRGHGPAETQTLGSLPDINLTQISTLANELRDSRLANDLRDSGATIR
Description: ELISA, coated human TIM-3 ECD protein, 6.6667 nM antibody.

In experiment [5] the target is T4, monkey TIM-3 extracellular domain protein with hFc tag (cTIM-3-hFc) (monkey).
T4 construct: not shown: human IgG Fc fragment (hFc) of the pCpC vector
T4 chain: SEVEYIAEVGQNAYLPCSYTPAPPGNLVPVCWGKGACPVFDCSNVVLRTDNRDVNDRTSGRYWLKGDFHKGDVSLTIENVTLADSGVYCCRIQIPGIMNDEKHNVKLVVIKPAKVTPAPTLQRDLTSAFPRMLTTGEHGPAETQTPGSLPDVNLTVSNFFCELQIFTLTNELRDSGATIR
Description: ELISA, coated monkey TIM-3 ECD protein, 0.0001 nM antibody.

The target in experiment [6] is T1, monkey TIM-3 on CHOK1 stable cell line …. Description: FACS, CHOK1-cTIM-3 cells, 8 nM antibody.
In experiment [7] the target is T4, monkey TIM-3 extracellular domain …. Description: ELISA, coated monkey TIM-3 ECD protein, 0.0007 nM antibody.

B1: 18D2H2 fully human TIM-3 antibody (human IgG4, kappa) (antibody, V domains shown)
VH: EVQLVESGGDLVQPGGSLRLSCAASGFTFSTYWMTWVRQAPGRGLEWVANIKQDGSAKYYVDSVKGRFTLSRDDAKNSLYLQMNSLRAEDTAVYYCARGSNWFDYWGQGTLVTVSS
VL: ETVMTQSPATLSVSPGERATLSCRANQNVYSNLAWYQQKPGQAPRLLIYDASTRATGFPARFSGSGSGTEFTLTISSLQSEDFAVYYCQQYNNWPLTFGGGTKVEIK
As to B1, the figures for the Mean fluorescence intensity in experiment [1] and in experiment [6] were 44 and 475, respectively. Further, the OD450 in experiment [2] is 0.22; in experiment [3], 0.21; in experiment [4], 2.61; in experiment [5], 0.14; in experiment [7], 0.15.

B2: 34B6D8 fully human TIM-3 antibody (human IgG4, kappa) (antibody, V domains shown)
VH: EVQLVESGGGLVQPGGSLRLSCAASGFTFSTYWMTWVRQAPGKRLEWVANIKQGGGDKYYVDSVKGRFTISTDNAKNSLYLQMNSLRAEDTAVYYCARGSNWFDPWGQGTLVTVSS
VL: EIVMTQSPATLSMSPGERATLSCRASQSVYDNLAWYQQKPGQAPRLLIYGASTRATGIPARFSGSGSGTEFTLTISSLQSEDFALYYCQQYTHWPITFGQGTRLEIK
With B2, the Mean fluorescence intensity was 35.4 in experiment [1] and 340 in experiment [6]. In addition, the OD450 in experiment [2] was determined as 0.24; in experiment [3], 0.24; in experiment [4], 2.99; in experiment [5], 0.17; in experiment [7], 0.19.

B3: 39E5H1 fully human TIM-3 antibody (human IgG4, kappa) (antibody, V domains shown)
VH: EVQLVESGGGLVQPGGSLRLSCAASGFTFSSYWMSWVRQAPGKGLEWVANIKRGGSERYYVDSVKGRFTISGDNAKNSVYLQMNSLRAEDTAVYYCARGSNWFDPWGQGTLVTVSS
VL: ETVMTQSPAILSVSPGERATLSCRASQSVYSNLAWYQQKLGQAPRLLIYDASTRATGIPARFSGSGSGTEFTLTISSLQSEDFAVYYCQQYNNWPITFGQGTRLEIK
With B3, the values for the Mean fluorescence intensity in experiment [1] and in experiment [6] were 42.3 and 349, respectively. For the same molecule, the OD450 was found to be 0.24 in experiment [2]; 0.23 in experiment [3]; 2.95 in experiment [4]; 0.17 in experiment [5]; 0.18 in experiment [7].
